Assay [1] addresses human Izumo1, immobilized AVEXIS bait (UniProt Q8IYV9). Description: AVEXIS. As to conditions: parent: est. 0.16; read off a plot.
In assay [2] the target is mouse Izumo1, immobilized AVEXIS bait (UniProt Q9D9J7). Description: AVEXIS. The following applies: parent: est. 0.51; read off a plot.

From PMC4751342 come the findings set out here.

Sequence of mouse Izumo1, immobilized AVEXIS bait (Q9D9J7 22-397): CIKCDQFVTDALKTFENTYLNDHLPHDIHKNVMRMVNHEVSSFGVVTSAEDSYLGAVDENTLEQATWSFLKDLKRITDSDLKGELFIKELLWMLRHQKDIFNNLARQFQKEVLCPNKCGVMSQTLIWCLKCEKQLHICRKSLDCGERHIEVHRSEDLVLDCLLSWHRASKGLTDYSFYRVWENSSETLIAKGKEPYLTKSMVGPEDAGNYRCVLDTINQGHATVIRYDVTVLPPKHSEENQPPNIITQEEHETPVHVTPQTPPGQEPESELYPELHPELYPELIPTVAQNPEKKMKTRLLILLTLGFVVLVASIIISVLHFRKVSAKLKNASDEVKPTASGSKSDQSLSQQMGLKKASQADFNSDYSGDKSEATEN
Sequence of human Izumo1, immobilized AVEXIS bait (Q8IYV9 22-350): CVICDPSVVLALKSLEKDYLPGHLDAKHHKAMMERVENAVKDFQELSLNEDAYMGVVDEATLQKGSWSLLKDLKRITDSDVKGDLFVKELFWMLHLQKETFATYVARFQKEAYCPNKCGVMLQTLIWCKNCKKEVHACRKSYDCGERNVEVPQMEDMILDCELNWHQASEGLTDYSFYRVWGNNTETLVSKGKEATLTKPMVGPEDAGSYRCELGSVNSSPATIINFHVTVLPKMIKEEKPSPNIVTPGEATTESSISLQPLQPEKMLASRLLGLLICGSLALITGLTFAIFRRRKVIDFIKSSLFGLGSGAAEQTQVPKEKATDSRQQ
Sequence of mouse Juno, wild type, AVEXIS prey (from UniProt Q9EQF4) Loop 2 (mouse Juno loop 2 replaced with the corresponding human residues) (Q9EQF4 20-222, change not shown): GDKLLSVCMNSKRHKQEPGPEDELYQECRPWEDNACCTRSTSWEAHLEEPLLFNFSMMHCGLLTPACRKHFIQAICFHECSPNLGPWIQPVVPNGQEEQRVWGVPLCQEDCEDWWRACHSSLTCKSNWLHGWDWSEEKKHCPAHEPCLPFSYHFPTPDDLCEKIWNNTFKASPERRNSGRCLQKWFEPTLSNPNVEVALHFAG
Sequence of mouse Juno, wild type, AVEXIS prey (from UniProt Q9EQF4) Loop 3 (mouse Juno loop 3 replaced with the corresponding human residues) (Q9EQF4 20-222, change not shown): as above
Sequence of mouse Juno, wild type, AVEXIS prey (from UniProt Q9EQF4) Loop1 (mouse Juno loop 1 replaced with the corresponding human residues) (Q9EQF4 20-222, change not shown): as above

Regarding “mouse Juno, wild type, AVEXIS prey (from UniProt Q9EQF4) Loop1 (mouse Juno loop 1 replaced with the corresponding human residues)”, the response in assay [1] worked out at 0.16 A 485 nm; in assay [2], 0.22 A 485 nm.

Regarding “mouse Juno, wild type, AVEXIS prey (from UniProt Q9EQF4) Loop 3 (mouse Juno loop 3 replaced with the corresponding human residues)”, the results for the response in assay [1] and in assay [2] were 0.51 A 485 nm and 0.52 A 485 nm, respectively.

With “mouse Juno, wild type, AVEXIS prey (from UniProt Q9EQF4) Loop 2 (mouse Juno loop 2 replaced with the corresponding human residues)”, the results for the response in assay [1] and in assay [2] were 0.17 A 485 nm and 0.51 A 485 nm, respectively.
